Measurements taken from the DeepSol protein solubility set.

Assay: soluble on expression in E. coli; label from the status in PepcDB or PDB records
For “MGSDKIHHHHHHMKRFNIIITLSATLGLFSCELDKMPMDQVSDAVFWQKPADFELAANDFYFGLQEVSQYIDMNSDIAFGSGTNDVSDGSYLAPVNSDDWDNPWKFVQSTSYLLKKAEESGLSDEEIGRWKAEAHFFRAYNYWKLVKTYGGVPKIDIPLNTSSEELYTPRSSQQEIIDFIIEDLDKAIPLLPKQSGLTAEELGRTTQGAALALKARAALFEGTWQKYHGMADAGKYLDLAIQAAQAIVDSKEYELYREKGELSYKYLHILEGDDSKEVLLARRYYKLRATHNWTRELLLGAMVPTKNLADVYLCTDGLPIDKSKLFKGFQTQTSEFENRDSRMAQTFVVPGSEIFSEGGGWATVEPGFIGNNSTRTGYMIRKFMDETLDAVQFIGEYDFKEFRYGEVLLILAEALYEKNGQITDEQLDLTINDLRNRANMPRLTNAFVATNGLNMQEEIRRERTVELAFEGYRRDDLRRWGTAETVLPLAIRGVKFVGTEYQQKFPELVIGQDIQVDSEGFIIAQPASARKFQTPKHWLSPIPLQQVQLSKGTLEQNPGW”, the “soluble on expression in E. coli” value was “not soluble”.
In the case of “MGSDKIHHHHHHMSKIKRGVSLYSFQEELFLGRMNVEDCVSFAASIGATGIEILPEQNMPTFPNLSDAQVEEWKAMVARHGCHFTAYDMFLDTKLRKDRLMSDDEQVESIVRDLRLCNRLGIRNMRVLVFVRPDILGRCVPYAEELDVHMGVEVHAPWHLEHAWILRTIEEADRLGTKHLGILPDMGIFMKHYPPAFRARFERQGARPEVTQFIVDQHEAKIMAEYTIYEVAVKMGGNKAEVAMAETLRHAPYANPKRIADYAPYFHHIQAKFYEMDEDCTDPSIAYDEVIDALVGCGWEGTLSSEYEGNRWIQDVHEVDSREQVRRQHVMFERLIVQSEARHAGKEAALCSTST”, the “soluble on expression in E. coli” value was “not soluble”.
In the case of “MMKLKFYLVYLWYKVLLKLGIKTDEIYYIGGSEALPPPLTKEEEEVLLNKLPKGDQAARSLLIERNLRLVVYIARKFENTGINIEDLISIGTIGLIKAVNTFNPEKKIKLATYASRCIENEILMHLRRNNKNRSEVSFDEPLNIDWDGNELLLSDVLGTDDDIITKDLEATVDRHLLMKALHQLNDREKQIMELRFGLAGGEEKTQKDVADMLGISQSYISRLEKRIIKRLRKEFNKMV”, the “soluble on expression in E. coli” value was “not soluble”.
In the case of “MGSEEYFKKGAIKVEIKSGALLISPSEFKERYLPTLQDMPVLAFVRNIEAPKSWYSYLISNIEDQKSSIFPTNLPRILEISRRYFSSVKNGIVVIDALEYLTIYNGFEAIAKFLATLRDFAILDNGTVIIITEKKAWKDREWALLTSLLGKLEHHHHHH”, the “soluble on expression in E. coli” value was “soluble”.
For “MPRYYEDKPEGGACAGVKEDLGACLLQSACVLQEGKSPRQCLKEGNCRALQYSFFECKRSMLDARSRFRGRKGY”, the “soluble on expression in E. coli” value was “not soluble”.
For “MSLDNFIAGLPKLELHLHIEGSLEPELMFALGQRNGVALPWPDVASVRAAYEFDCLQSFLDLYYLGASVLITEQDFFDLTWAYLERCAADKVVHVEIFFDPQTHTARGVPFATVLGGIERALQRGEWEFGISWRLIMSFLRHLSEEDAFATLAEATPFLSRIHGIGLDSGEKGNPPSKFARVFARCRELGLPVVAHAGEEGPADYIWQAIRELEVRRIDHGVRCVDDPDLLRYLADTRLPLTVCPLSNTRLKVFDQMAHHNVLALLEQGLCVTINSDDPAYFGGYMNANFHALAHELGASMNQLCRLSLNAVEASWLSLADKARLTREGHHHHHH”, the “soluble on expression in E. coli” value was “soluble”.
In the case of “MYLQDRSPYMENSGSSNDRNSGKTEYQLTLIGALKKEIEIARRLDPEKLAAEIKKTGFSCQNCGKCCKRAFGDNRVVLTPQEIEKIQKYTDLSKLEVAGPLIPDISCPEEAGEGEEDRVAENSSIMPEIDEKKTSEPFRTPELLKEDIDPDGNIHAYGWMLRRKRNGDCVFLEKDTNRCRIYPVRPMLCSTYPFYIEGLKLYTCECEGLGVHISAEESRKLAGSLLSRYVSELEDTLAMYEKYEDFERTEKGHEIAKNNLEKGTCIYIVHDSRGITKIIDLEHHHHHH”, the “soluble on expression in E. coli” value was “soluble”.
With “DKKIMVIVNTVDKAITLYEKLRDLSPCLIHSRFKIGDRDEKLRKECNIIIATQVIEVGVNISSEVMITEQAPITSIVQRVGRLLRDNKKDKGELYIWKSGNYYPYDKDEVENTIKELESKKNDISL” the “soluble on expression in E. coli” value was “not soluble”.
In the case of “QTFGHGQARAFVLSPVMPVWDQGAFAGPLIEHFIRSGHQVTVFDSLSLPAVPDECFSGFAERWADALEPWGVPDVLVGVALGGALAQALAGISFLSVTPALLLLSSPSKADALLDARLGRMADLAEQGHVRQAKRLLDELVLPEGQAHAEQDRFDTETDALLAPQGRRLVRGFRLLDGVNVSERLCDYEGRVLSVFGGKSQLVGADHVLRTKGSNQHS”, the “soluble on expression in E. coli” value was “not soluble”.
For “MLNKLMWLTGKAQEDWIEKILHLRQKIWPDYQRIKNDTLFKLYSHYPLYQWLSHYNGEVVAVINSLPVALDQSLDNLPQEGLNWVLSHLESTTPLTQSNYLAAVSVTVNPAYQRLGLSKLLLNRLKASAQEAQYKALIVPARPSQKENY”, the “soluble on expression in E. coli” value was “not soluble”.
In the case of “RADEQAFLVALYKYMKERKTPIERIPYLGFKQINLWTMFQAAQKLGGYETITARRQWKHIYDELGGNPGSTSAATCTRRHYERLILPYERFIKGEEDKPLPPIKPRK”, the “soluble on expression in E. coli” value was “soluble”.
In the case of “MGSDKIHHHHHHMKVKPFSLSIPFNTEPPSDWKDAWDVQLYVKVEDEKDYGWGEALVAGSGIINSYLSIINDIAIPLLSRVELSEPIDVRTILEKILFSAGNCGVVSGAISAVEMALWSLKARKSNVELYKLIGDKIRDSVKVYASFPRFGKIDDVLIATRKSLERGFDLVKLHQSPSTVLAAVKAIRENYKEVKIAIDLNSPFDNLDVAKEFVDKVHKYEIEWIEEPLWPPNDYDLLSKLTEFSPIPIAAGENEYSLYGFKKLIESGITYLQPDIAKVGGVTKFLEILDLASKYKVRVLPHDRPDASPISLIYTLNIGLVKSQIEMVEYTIADFPNDLFYSLPKFKDGYISPPENLEVVERNIEKYSYKNRLRILHFSDLENKLMRKIT”, the “soluble on expression in E. coli” value was “not soluble”.
For “MFIQTEATPNPATLKFLPGKVVLESGTVEFLNASQAQASPLAERLFTIPGVTGVYFGFDFITVTKDDAEWQHLKPAILGSIMEHFMSGRPIMGTAIAAEVSDEEGEFFEEGDETIVATIKELLDTRVRPAVAQDGGDITFRGFRDGTVFLNMKGACSGCPSSTATLKHGVQNLLRHFVPEVREVEAV”, the “soluble on expression in E. coli” value was “not soluble”.
In the case of “MPLDVALKRKYYEEVRPELIRRFGYQNVWEVPRLEKVVINQGLGEAKEDARILEKAAQELALITGQKPAVTRAKKSISNFKLRKGMPIGLRVTLRRDRMWIFLEKLLNVALPRIRDFRGLNPNSFDGRGNYNLGLREQLIFPEITYDMVDALRGMDIAVVTTAETDEEARALLELLGFPFRK”, the “soluble on expression in E. coli” value was “soluble”.
With “PQYIGGISNTFKYKNWEFSCFVTMQAGNKIRMNPSFDPAFADLNVFSKEYYNRWLNPGDERKTNIPVIPSQDLIRNIGKENIEKAYNTYNYSQNRVADGSFVRMKNISLGYRLPQRFLSHLKIKQMNVKVNVTNPFLIYSDRKLNGQDPEFYRSGGVSLPTPKQYTMTLNVEF” the “soluble on expression in E. coli” value was “not soluble”.
For “MAEHPIQGLMETAMESIKEMVDVNTIVGDAVQAPDGTVIIPISKVTFGFAAGGGEFASCCSVDEKGEDSSDDSSKPEIKFPFAGGSGAGVSINPVAFMVVGQGQIKLLPVNINSSLEKILDLIPEIIEKTKDSVKKNLKVKKEIKPGNGESCAKSSKEDENE”, the “soluble on expression in E. coli” value was “not soluble”.
In the case of “SLGAGQPLGGYAEDLEGRQADLPKYSRANVRIVFAAVFPESNVYQGGEGYPTPSSSRLLLLDQVKTYYALSSIHGVEIIESWRSAQEVLEAPRWRLGLLLHLEGADALADILDLELLHRLGFRSLGLTWNHDNRWAASCKTRRDYGLTQSGEDLVKKAAELGVIIDLAHASDKTVADAASASPKPVIVSHANFRWKVDSPRNVGEEAVEAVVSKGGVIGYSLISTLITRGRHPTLHDVASQMAEFVEVYGHRHLAIGTDYHGLLDIRPPTGLESIDRLPRLLEALADAGLSDRQIEAIAYGNIARVIREVLPES”, the “soluble on expression in E. coli” value was “not soluble”.
In the case of “MSLDNLITIYDKNDANNLAEHLYDTQGLGALSDWLTATVSNKLNGAEIFQGTYSINGTNADLIVEGRIIQCYVDENRAKQRLRIYYAKTSVIGNTIEVKAEPIFNDIRKSVLNKYDSGTEKITATQAWQNAKVLAKPAIPSQFSFSSLVDTLANVKIEKANFLEFFGGKEGSILDRFHGEFLKDNNTLRHEKSLGTDHKIKAIYTKNLTGLDLEIDAQSVLVGVYPFISSSSEGEDEITLPEEVIFTDYVDDYPAGYVSFVDFKDKATDVATLREAAKDWLKTNIDKQKPQVSGSIELVPLRHQRGYEKFVDLEKVSMGDGVDVYHPQLKVNMSARIVEYTFNVLTNSYDKLVVGNVKTNFLENTENNVSNLINDEGHHHHHH”, the “soluble on expression in E. coli” value was “soluble”.
